The source of these data is PMC4605308 (Nucleic Acids Research, 2015).

The target in this experiment is T1, hexahistidine-tagged ubiquitin (the ubiquitin part of the Rad6^iso∼Ub conjugate) (human, UniProt P0CG48 1-76, C-terminus linked to K88 of Rad6 C88K via an isopeptide linkage).
T1 construct: ubiquitin, human; The final model holds two additional N-terminal residues from the plasmid vector; also called His6-Ub; Ub-His6; source: in the crystal conjugated to Rad6^C88K
In words: crystal structure; Rad6^iso∼Ub conjugate; sitting drop vapor diffusion at 20°C, 24% PEG 300, 50 mM sodium acetate, pH 5.4; one conjugate in the asymmetric unit, contacts between conjugates in the crystal. The conditions noted are these: both partners purified.

B1: Rad6 C88K (the Rad6 part of the Rad6^iso∼Ub conjugate) (enzyme, Saccharomyces cerevisiae, UniProt P06104 1-172, looked up)
chain: MSTPARRRLMRDFKRMKEDAPPGVSASPLPDNVMVWNAMIIGPADTPYEDGTFRLLLEFDEEYPNKPPHVKFLSEMFHPNVYANGEIKLDILQNRWTPTYDVASILTSIQSLFNDPNPASPANVEAATLFKDHKSQYVKRVKETVEKSWEDDMDDMDDDDDDDDDDDDDEAD
modifications: lysine at position 88 linked to the ubiquitin C-terminus via an isopeptide linkage
notes: Rad6, Saccharomyces cerevisiae, with C88K; Written on its own for the non-covalent contact between Rad6 of one conjugate and ubiquitin of another in the crystal; source: E. coli Rosetta2 DE3 pLysS, purified; in the crystal conjugated to His6-Ub; not shown: MBP, N-terminal, cleaved; His6, N-terminal, cleaved
With B1, the binding result is reported as “binds”.
